Biological target: T1, human plasma-derived Factor X zymogen (human, UniProt P00742 41-179; P00742 183-488)
T1 construct: Plasma-derived, bought (Haematologic Technologies); also called FX; human FX
Experiment: SPR steady state, Nb captured by anti-His mAb, FX injected
Protocol: Binding of purified anti-FX Nanobodies (Nb) to human plasma-derived FX (Haematologic Technologies Inc, USA) was probed by Surface Plasmon Resonance (SPR) (Biacore T200). Briefly, anti-His mAb (MAB050 from R&D systems) was immobilised on a CM4 sensor chip using standard amine coupling chemistry. Anti-FX Nanobodies (10 nM), according to Table 3, was injected at a flow rate of 10 μL/min for 1 minute. Subsequently 4096, 1024, 256, 64, 16, 4, and 0 nM of FX were injected at a flow rate of 30 μL/min for 4 minutes to allow for binding to anti-FX Nb followed by a 5 minutes running buffer (10 mM HEPES, 150 mM NaCl, 5 mM CaCl₂, 0.05% (v/v) Surfactant P20, 1 mg/mL bovine serum albumin, pH 7.4) injection allowing dissociation from anti-FX Nanobody®. The running buffer was also for dilution of anti-FX Nb and FX samples. Regeneration of the chip was achieved using a regeneration buffer consisting of 3M MgCl₂, 30 seconds contact time, and a 30 μL/min flow rate. The binding data were collected at 25° C. and were analysed according to a 1:1 model using BiaEvaluation 4.1 supplied by the manufacturer (Biacore AB, Uppsala, Sweden).
Therefore, the reported KD values are determined based on steady state analysis. The strongest binder identified is Nb702C12, while the others Nanobodies® tested binds FX with a slightly higher KD and lower Rₘₐₓ.

T1 sequence (P00742 41-179, chain 1 of 2): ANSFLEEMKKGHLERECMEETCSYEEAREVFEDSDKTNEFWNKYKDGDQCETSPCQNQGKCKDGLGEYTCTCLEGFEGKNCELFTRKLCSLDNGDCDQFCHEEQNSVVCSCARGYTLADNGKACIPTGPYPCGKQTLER
T1 sequence (P00742 183-488, chain 2 of 2): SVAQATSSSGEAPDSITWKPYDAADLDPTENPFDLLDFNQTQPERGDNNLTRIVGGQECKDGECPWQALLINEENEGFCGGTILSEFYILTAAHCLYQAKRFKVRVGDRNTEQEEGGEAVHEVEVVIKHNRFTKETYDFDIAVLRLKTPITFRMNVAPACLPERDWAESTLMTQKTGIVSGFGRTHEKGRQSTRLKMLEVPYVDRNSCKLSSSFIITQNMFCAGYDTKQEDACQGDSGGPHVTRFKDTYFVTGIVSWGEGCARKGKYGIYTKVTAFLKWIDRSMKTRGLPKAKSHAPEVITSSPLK

Binder | Kd
Nb 701C06 (VHH, monovalent Nanobody; not shown: C-terminal FLAG3 and HIS6 tag) VHH: EVQLVESGGGVVQPGGSLRLSCAASGRTFSTYAMGWFRQAPGKEREFVAAISRRGGRTYYADSVKGRFTISRDNSKNTVYLQMNSLRPEDTALYYCAADATARDGLLDYWGQGTLVTVSS | 960 nM
Nb 701B09 (VHH, monovalent Nanobody; also called Nb 701609; not shown: C-terminal FLAG3 and HIS6 tag) VHH: EVQLVESGGGVVQPGGSLRLSCAASGRTFSTYAMGWFRQAPGKEREFVAAISWSGSRTYYADSVKGRFTISRDNSKNTVYLQMNSLRPEDTALYYCAADATPANGELDYWGQGTLVTVSS | 2100 nM

Continued, values first:

Kd | Binder
2400 nM | Nb 701D07 (VHH, monovalent Nanobody; not shown: C-terminal FLAG3 and HIS6 tag) VHH: EVQLVESGGGVVQPGGSLRLSCAASGGTLSRYAMGWFRQAPGKEREFVAAITRRGSRTYYADSVKGRFTISRDNSKNTVYLQMNSLRPEDTALYYCAADLAPGDYALDYWGQGTLVTVSS
1200 nM | Nb 702C12 (VHH, monovalent Nanobody; not shown: C-terminal FLAG3 and HIS6 tag) VHH: EVQLVESGGGVVQPGGSLRLSCVASGRTFSRYAMGWFRQAPGKEREFVAAISRRGGSTNYADSVKGRFTISRDNSKNTVYLQMNSLRPEDTALYYCAADYSSGDGYLDYWGQGTLVTVSS

From patent US20210054097A1 (Novo Nordisk, published 2021)
